Reference: patent US20230357339A1, “Development of Cell-Permeable Truncated SOCS3 SH2 Domain (CP-SD) Recombinant Protein for Anti-Obesity Agent” (Cellivery Therapeutics, Inc., priority 2020, published 2023)

B1: aMTD830-P2-1-32B: SEQ ID No. 266; aMTD830-replaced P2-1-32B (protein)
chain: IALVAAPVALVPEAAAKLIRDSSDQRHFFTLSVKTQSGTKNLRIQGGGGSGGGGSGGGGSGGGGSAYYIYSGGEKIPLVLSRPLSSNEAAAKEAAAKEAAAKMAEQSDKDVKYYTLEEIQKHKDSKSTWLILHHKVYDLTKFLEEHPGGEEVLGEQAGGDATENFEDVGHSTDARELSKTYIIGELHPDDRSKIAKPSETL
modifications: Amino acid Sequence of aMTD830-P2-1-32B
notes: aMTD830-replaced P2-1-32B
B2: aMTD524-P2-1-24: SEQ ID No. 281; same regions as aMTD524-P2-1-23 with different linkers (protein)
chain: AVALIVVPALAPEAAAKLIRDSSDQRHFFTLSVKTQSGTKNLRIQGGGGSGGGGSGGGGSGGGGSHHYMGSGSGSGSAYYIYSGGEKIPLVLSRPLSSN
modifications: Amino acid Sequence of aMTD-P2-1-24
notes: same regions as aMTD524-P2-1-23 with different linkers
B3: aMTD524-P2-1-6: SEQ ID No. 268; his tag-conjugated aMTD524-P2-1 (protein)
chain: GSSHHHHHHSSGLVPRGSHMAVALIVVPALAPEAAAKLIRDSSDQRHFFTLSVKTQSGTKNLRIQ
modifications: His tag; Amino acid Sequence of aMTD524-P2-1-6
B4: aMTD524-36: SEQ ID No. 282; truncate from the SH2 domain containing aMTD and SH2 (L69-Q96) (protein)
chain: AVALIVVPALAPEAAAKGFYWSAVTGGEANLLLSAEPAGTFLIRDSSDQRHFFTLSVKTQSGTKNLRIQCEGGSFSLQSDPRSTQPVPRFDCVLKLVHHYMGSGSGSGSAYYIYSGGEKIPLVLSRPLSSN
modifications: Amino acid Sequence of aMTD524-36
B5: aMTD830-P2-1B: SEQ ID No. 255; aMTD830-replaced P2-1B, SH2 (L69-Q96) and SDB (protein)
chain: IALVAAPVALVPEAAAKLIRDSSDQRHFFTLSVKTQSGTKNLRIQEAAAKEAAAKEAAAKMAEQSDKDVKYYTLEEIQKHKDSKSTWLILHHKVYDLTKFLEEHPGGEEVLGEQAGGDATENFEDVGHSTDARELSKTYIIGELHPDDRSKIAKPSETL
modifications: Amino acid Sequence of aMTD830-P2-1B
notes: aMTD830-replaced P2-1B, SH2 (L69-Q96) and SDB
B6: aMTD524-37: SEQ ID No. 283; truncate from the SH2 domain containing aMTD and SH2 (L69-Q96) (protein)
chain: AVALIVVPALAPEAAAKLIRDSSDQRHFFTLSVKTQSGTKNLRIQCEGGSFSLQSDPRSTQPVPRFDCVLKLVHHYM
modifications: Amino acid Sequence of aMTD524-37
B7: aMTD524-P2-1-21: SEQ ID No. 279; contains SH2 (T52-A62), (L69-Q96), (V120-M128) and (A164-N185) (protein)
chain: TGGEANLLLSAGSGSGSGSGSGSGSGSAVALIVVPALAPEAAAKLIRDSSDQRHFFTLSVKTQSGTKNLRIQGGGGSGGGGSGGGGSGGGGSVLKLVHHYMGSGSGSGSAYYIYSGGEKIPLVLSRPLSS
modifications: Amino acid Sequence of aMTD-P2-1-21
B8: aMTD830-P2-1-24B: SEQ ID No. 261; aMTD830-replaced P2-1-24B (protein)
chain: IALVAAPVALVPEAAAKLIRDSSDQRHFFTLSVKTQSGTKNLRIQGGGGSGGGGSGGGGSGGGGSHHYMGSGSGSGSAYYIYSGGEKIPLVLSRPLSSNEAAAKEAAAKEAAAKMAEQSDKDVKYYTLEEIQKHKDSKSTWLILHHKVYDLTKFLEEHPGGEEVLGEQAGGDATENFEDVGHSTDARELSKTYIIGELHPDDRSKIAKPSETL
modifications: Amino acid Sequence of aMTD830-P2-1-24B
notes: aMTD830-replaced P2-1-24B
B9: aMTD524-P2-1-23: SEQ ID No. 280; contains SH2 (L69-Q96), SH2 (H125-M128) and SH2 (A164-N185) (protein)
chain: AVALIVVPALAPEAAAKLIRDSSDQRHFFTLSVKTQSGTKNLRIQEAAAKEAAAKEAAAKEAAAKHHYMGSGSGSGSAYYIYSGGEKIPLVLSRPLSSN
modifications: Amino acid Sequence of aMTD-P2-1-23

test system: leptin resistant mHypoA2/21-SOCS3 cells; assay: Biological activity test: overcoming leptin resistance (STAT3 phosphorylation, western blot); assay type: cell-based; conditions: protein treated 1 hour, then 10 ng/mL mouse leptin 30 minutes
Experimental: To validate that cell-permeable truncated SOCS3 recombinant protein can overcome leptin resistance, the purified recombinant proteins were treated at leptin resistant cell line mHypoA2/21-SOCS3. mHypoA2/21-SOCS3 was produced by over-expressing SOCS3 at mouse hypothalamic neuron mHypoA2/21, and cultured using DMEM containing 10% FBS and 7 mg/mL geneticin. Cells were seeded at the concentration of 150000 cells/60 mm plate and on the following day the medium was replaced with 7 mg/mL geneticin containing serum free DMEM and starved the cells for the following 16 hours. Purified CP-SD recombinant proteins were diluted into 7 mg/mL geneticin containing serum free DMEM and treated for 1 hour, proteins were removed, and 10 ng/mL mouse leptin was treated for 30 minutes.
The cells were lysed in a lysis buffer (150 mM NaCl, 20 mM Tris, 1% triton-X-100, pH 7.5) containing protease inhibitor and […], incubated for 20 min at 4° C., and centrifuged at 13,000 rpm for 20 min at 4° C. Equal amounts of lysates were separated on 10% SDS-PAGE gels and transferred to a PVDF membrane. The membranes were blocked using TBST buffer 5% bovine serum albumin (BSA) and for western blot analysis incubated with the following antibodies diluted in TBST buffer 5% bovine serum albumin (BSA): anti-phospho-STAT3 (Cell Signaling Technology, USA), anti-STAT3 (Cell Signaling Technology, USA) and anti-myc (Cell Signaling Technology, USA), then HRP conjugated anti-rabbit secondary antibody (Cell Signaling Technology, USA) and anti-mouse secondary antibody (Cell Signaling Technology, USA). The protein bands were detected with ECL solution using luminescent image analyzer (ImageQuant LAS 500, GE Healthcare).

| Molecule | overcoming leptin resistance (STAT3 phosphorylation level) |
| --- | --- |
| B1 | overcame leptin resistance |
| B2 | overcame leptin resistance |
| B3 | overcame leptin resistance |
| B4 | did not overcome leptin resistance |
| B5 | overcame leptin resistance |
| B6 | did not overcome leptin resistance |
| B7 | did not |
| B8 | overcame leptin resistance |
| B9 | did not |

target: T1, Phosphorylated human leptin receptor peptide (QRQPFVK[pY] ATLISNSK), phosphorylated Y985 (Homo sapiens, UniProt P48357); assay: Binding affinity to leptin receptor by isothermal titration calorimetry (ITC); conditions: leptin receptor peptide phosphorylated at Y985, storage buffer pH 4.0
T1 construct: Phosphorylated human leptin receptor peptide (QRQPFVK[pY] ATLISNSK); purchased Anygen (Gwangju, Korea); host or cells: synthetic peptide
Experimental: The binding affinity of cell-permeable truncated SOCS3 SH2 domain recombinant proteins to leptin receptor was analysed using isothermal titration calorimetry (ITC). Phosphorylated human leptin receptor peptide (QRQPFVK[pY] ATLISNSK) used in the experiment was acquired from Anygen (Gwangju, Korea). The binding affinity of aMTD524-P2-1-6 was measured using the following methods. Leptin receptor peptide was dissolved into DMSO and was diluted into storage buffer (50 mM sodium acetate, 50 mM NaCl, pH 4.0) to reach a final peptide concentration of 400 μM and final DMSO concentration of 0.5%. Using dialysis method, purified aMTD524-P2-1-6 was maintained at the identical batch storage buffer, and was diluted to reach the final concentration of 50 μM. Next, binding affinity was measured using ITC (Auto-ITC200).

| Molecule | Kd |
| --- | --- |
| B3 | 8 µM |

test system: not listed separately; assay: Turbidity with thermal stress of 37° C. (absorbance at 350 nm); assay type: physicochemical; conditions: thermal stress of 37° C. for 3 hours, storage buffer
Experimental: The recombinant proteins were diluted in their storage buffer or serum free DMEM medium and added into wells of a clear 96 well plate. The plate was incubated at 37° C. and the absorbance of each well was measured at 350 nm every 30 minutes in a microplate reader (Synergy H1, BioTek).

| Molecule | stability (turbidity) in storage buffer |
| --- | --- |
| B3 | stable |

same assay, conditions: thermal stress of 37° C., serum free medium

| Molecule | stability (turbidity) in serum free medium |
| --- | --- |
| B1 | stable |
| B2 | instability |
| B5 | stable |
| B8 | stable |
